According to patent US20170360893A1 (Merck Sharp & Dohme, published 2017):
*1 amine or outer side, *2 acyl side, *3 side chain or, on linkers, in order; H or OH if unused. Where no end group is shown, it is not given here. Side-chain parts run from the residue outwards. [ ]: non-standard residue; d: D form. The star is where a group is joined. γGlu = O=C(O)[C@H](CCC(=O)[*:2])N[*:1]; Palmitoyl = CCCCCCCCCCCCCCCC(=O)*; Nle = CCCC[C@H](N)C(=O)O; Ac4c = NC1(C(=O)O)CCC1; Aib = CC(C)(N)C(=O)O

Assays:
[1] = molecular target: human glucagon-like peptide 1 receptor (human, UniProt P43220 24-463); test: cell-based or functional assay
human glucagon receptor = human glucagon receptor (human, UniProt P47871 26-477); test: cell-based or functional assay
Sequence of human glucagon receptor (P47871 26-477): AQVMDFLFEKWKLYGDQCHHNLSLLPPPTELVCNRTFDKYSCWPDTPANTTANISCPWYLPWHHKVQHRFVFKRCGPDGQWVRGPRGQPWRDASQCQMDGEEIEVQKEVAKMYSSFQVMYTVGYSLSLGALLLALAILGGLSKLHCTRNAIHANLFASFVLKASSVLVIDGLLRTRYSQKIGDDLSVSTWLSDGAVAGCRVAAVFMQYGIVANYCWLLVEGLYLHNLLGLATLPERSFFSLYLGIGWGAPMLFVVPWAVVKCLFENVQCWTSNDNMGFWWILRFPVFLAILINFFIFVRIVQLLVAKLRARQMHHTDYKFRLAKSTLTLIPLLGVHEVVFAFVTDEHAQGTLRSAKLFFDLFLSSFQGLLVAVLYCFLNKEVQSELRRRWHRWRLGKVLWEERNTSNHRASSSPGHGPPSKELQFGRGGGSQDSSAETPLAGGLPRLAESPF

Row | Binder | GLPR1 EC50 (nM) human; cAMP production (HitHunter cAMP XS) in cells expressing human GLP-1R, 20% human serum [1] [nM] | GCGR EC50 (nM) human; cAMP production (HitHunter cAMP XS) in cells expressing human GCGR, 20% human serum (human glucagon receptor) [nM]
1 | H[Ac4c]QGTFTSDK([γGlu-γGlu-Palmitoyl])SKYLDERAAQDFVQWLLDT-NH2 (N-terminus assumed; SMILES CCCCCCCCCCCCCCCC(=O)N[C@@H](CCC(=O)N[C@@H](CCC(=O)NCCCC[C@H](NC(=O)[C@H](CC(=O)O)NC(=O)[C@H](CO)NC(=O)[C@@H](NC(=O)[C@H](Cc1ccccc1)NC(=O)[C@@H](NC(=O)CNC(=O)[C@H](CCC(N)=O)NC(=O)C1(NC(=O)[C@@H](N)Cc2c[nH]cn2)CCC1)[C@@H](C)O)[C@@H](C)O)C(=O)N[C@@H](CO)C(=O)N[C@@H](CCCCN)C(=O)N[C@@H](Cc1ccc(O)cc1)C(=O)N[C@@H](CC(C)C)C(=O)N[C@@H](CC(=O)O)C(=O)N[C@@H](CCC(=O)O)C(=O)N[C@@H](CCCNC(=N)N)C(=O)N[C@@H](C)C(=O)N[C@@H](C)C(=O)N[C@@H](CCC(N)=O)C(=O)N[C@@H](CC(=O)O)C(=O)N[C@@H](Cc1ccccc1)C(=O)N[C@H](C(=O)N[C@@H](CCC(N)=O)C(=O)N[C@@H](Cc1c[nH]c2ccccc12)C(=O)N[C@@H](CC(C)C)C(=O)N[C@@H](CC(C)C)C(=O)N[C@@H](CC(=O)O)C(=O)N[C@H](C(N)=O)[C@@H](C)O)C(C)C)C(=O)O)C(=O)O) [Co-agonist Peptide 13] | 0.05 | 0.06
2 | H[Aib]VGTFTSDK([γGlu-γGlu-Palmitoyl])SKYLD[Aib]RAAQDFVQWL[Nle]DT-NH2 [Co-agonist Peptide 4] | 0.1 | 0.89
3 | HXQGTXTSDKSKYLDERAAQDFVQWLLDT (not fully specified; X2 = D-Ser; X6 = threo-β-Phenylserine (tβP); K10 conjugated to γEγEC16; C-terminal amide) [Co-agonist Peptide 14] | 1.02 | 1.04
4 | H[dS]QGTFTSDK([γGlu-γGlu-Palmitoyl])SKYLDVRAAQDFVQWLLDT-NH2 (N-terminus assumed; SMILES CCCCCCCCCCCCCCCC(=O)N[C@@H](CCC(=O)N[C@@H](CCC(=O)NCCCC[C@H](NC(=O)[C@H](CC(=O)O)NC(=O)[C@H](CO)NC(=O)[C@@H](NC(=O)[C@H](Cc1ccccc1)NC(=O)[C@@H](NC(=O)CNC(=O)[C@H](CCC(N)=O)NC(=O)[C@@H](CO)NC(=O)[C@@H](N)Cc1c[nH]cn1)[C@@H](C)O)[C@@H](C)O)C(=O)N[C@@H](CO)C(=O)N[C@@H](CCCCN)C(=O)N[C@@H](Cc1ccc(O)cc1)C(=O)N[C@@H](CC(C)C)C(=O)N[C@@H](CC(=O)O)C(=O)N[C@H](C(=O)N[C@@H](CCCNC(=N)N)C(=O)N[C@@H](C)C(=O)N[C@@H](C)C(=O)N[C@@H](CCC(N)=O)C(=O)N[C@@H](CC(=O)O)C(=O)N[C@@H](Cc1ccccc1)C(=O)N[C@H](C(=O)N[C@@H](CCC(N)=O)C(=O)N[C@@H](Cc1c[nH]c2ccccc12)C(=O)N[C@@H](CC(C)C)C(=O)N[C@@H](CC(C)C)C(=O)N[C@@H](CC(=O)O)C(=O)N[C@H](C(N)=O)[C@@H](C)O)C(C)C)C(C)C)C(=O)O)C(=O)O) [Co-agonist Peptide 3] | 0.13 | 0.08
5 | H[dS]QGTFTSDK([γGlu-γGlu-Palmitoyl])SKYLDVRRAQDFVQWLLDT-NH2 (not fully specified; printed as HsQGTFTSDK(γEγEC16)SKYLDVRRAQDFVQWLLDT-NH2) [Co-agonist Peptide 2] | 0.16 | 0.041
